According to US11447566B2, “Anti-tissue factor antibodies, antibody-drug conjugates, and related methods” (Iconic Therapeutics, Inc., priority 2018, dated 2022):

Legend:
[1] = system: human thrombin generation (relipidated TF, normal pooled plasma); assay: Thrombin generation assay (TGA); type: biochemical; settings: 100 nM antibody, Example 18
Protocol: (§1) The TGA assay was performed using the calibrated-automated-thrombogram (CAT) instrument manufactured and distributed by STAGO. The test method design was equivalent to a standard CAT assay measurement, except that the plasma source was NPP in citrate/CTI. […] Relipidated TF was added to a 96-well assay plate, followed by addition of the antibody/NPP mixture. After a 10-min incubation or directly after combining the relipidated TF with antibody/NPP, thrombin generation was initiated by the addition of calcium and the thrombin substrate. The STAGO software was used to report the following parameters: Peak IIa (highest thrombin concentration generated [nM]); Lag Time (time to IIa generation [min]); ETP (endogenous thrombin potential, area under the curve [nM×min]); and ttPeak (time to Peak IIa [min]).
as §1, with “was normal pooled plasma (NPP)” for “was NPP”, “in citrate supplemented with corn trypsin inhibitor (citrate/CTI).” for “in citrate/CTI.”
TGA assay was performed using the calibrated-automated-thrombogram (CAT) instrument manufactured and distributed by STAGO (Diagnostica Stago SAS, Asnieres sur Seine, France). […] The anti-TF antibodies were titrated at 0, 10, 50 and 100 nM and mixed with NPP in citrate/CTI. Relipidated TF was added to a 96-well assay plate, followed by addition of the antibody/NPP mixture. After a 10-min incubation or directly after combining the relipidated TF with antibody/NPP, thrombin generation was initiated by the addition of calcium and the thrombin substrate. The STAGO software was used to report the following parameters: Peak IIa (highest thrombin concentration generated on the thrombin generation curve [nM]); Lag Time (time from assay start to the moment 10 nM of thrombin is formed [min]); ETP (endogenous thrombin potential, area under the curve [nM×min]); and ttPeak (time from assay start to Peak IIa [min]). […] As used herein, the term “thrombin generation assay” (TGA) refers to the TGA used in this example.

[2] = target: T1, human TF on MDA-MB-231 cells (43D7-Alexa488 binding) (Homo sapiens, UniProt P13726); assay: Antibody competition assay with 43D7; settings: pre-incubation with unlabeled competitor antibody
T1 construct: TF-positive MDA-MB-231 cells (ATCC, Manassas, Va., USA); host or cells: MDA-MB-231
T1 sequence (P13726 33-295): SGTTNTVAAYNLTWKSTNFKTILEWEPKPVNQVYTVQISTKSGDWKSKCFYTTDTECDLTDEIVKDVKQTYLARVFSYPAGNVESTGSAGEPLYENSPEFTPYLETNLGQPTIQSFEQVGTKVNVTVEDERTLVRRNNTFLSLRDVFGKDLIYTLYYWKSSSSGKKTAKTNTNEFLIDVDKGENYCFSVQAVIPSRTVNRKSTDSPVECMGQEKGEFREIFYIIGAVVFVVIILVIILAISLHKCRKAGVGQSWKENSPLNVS
Protocol: Alexa Fluor antibodies were generated using Alexa Fluor 488 5-sulfo-[…] esters (ThermoFisher Scientific) following manufacturer's protocol. Excess Alexa Fluor dye was removed from the antibody dye conjugate preparations by gel filtration (ThermoFisher Scientific).
After another 1 hr incubation on ice, cells were washed, stained with a viability dye, and analyzed by flow cytometry. The Alexa488 fluorescence data from viable cells was summarized using median fluorescence intensity.

[3] = target: T2, human, rat and chimeric human-rat TF constructs expressed on HEK293 cells (Homo sapiens, UniProt P13726, A112W/A121G/E116T/E127T/E131K/E137D/G113R/G119T/G122E/L125P/L136R/N139K/P130R/S117H/S120H/S129A/T118G/T133L/V115S/Y110V/Y126F); assay: Live cell staining assay on chimeric TF constructs (epitope binning); type: cell-based; settings: construct h78-107_r (21), human segment replaced by rat segment
T2 construct: expressed in transfected cells; host or cells: HEK293
T2 sequence (P13726 33-295 with the stated changes): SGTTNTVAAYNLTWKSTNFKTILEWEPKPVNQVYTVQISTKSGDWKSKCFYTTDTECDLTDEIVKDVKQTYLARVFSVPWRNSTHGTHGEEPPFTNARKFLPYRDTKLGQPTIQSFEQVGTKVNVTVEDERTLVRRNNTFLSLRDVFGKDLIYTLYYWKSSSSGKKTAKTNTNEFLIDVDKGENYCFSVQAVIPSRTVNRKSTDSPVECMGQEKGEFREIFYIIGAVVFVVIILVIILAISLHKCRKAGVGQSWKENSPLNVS
Protocol: (§2) To establish binding of the anti-human TF antibodies to the various TF constructs, HEK293 cells were transfected with a DNA plasmid that co-expresses the TF construct and a green fluorescent protein marker. […] Two days after transfection, cells were collected from the tissue culture plate, stained with 15 μg/ml of the indicated anti-TF antibody, washed, stained with anti-human IgG-Fc Alexa Fluor 647 polyclonal antibody, washed, and stained with the viability dye 4′,6-Diamidino-2-Phenylindole, Dihydrochloride. Upon acquisition of 80,000 live events on a flow cytometer, live cells marked with the fluorescent marker were analyzed for the degree of staining by the anti-TF antibody. […] As used herein, the term “live cell staining assay” refers to the antibody binding assay used in this example.
(§3) When “Percentage antibody binding to TF construct relative to hTF” in Tables 51 and 52 was less than 50%, the antibody was considered a non-binder (0) in Tables 53 and 54.
(§4) Each antibody was assigned to an epitope bin in Table 55 based on the combination of unbound constructs from Table 53.

[4] = target: T3, human, rat and chimeric human-rat TF constructs expressed on HEK293 cells (Homo sapiens, UniProt P13726, D177Q/S174T); assay: as above; type: cell-based; settings: construct h140-145_r (2), human segment replaced by rat segment
T3 construct: expressed in transfected cells; host or cells: HEK293
T3 sequence (P13726 33-295 S174T/D177Q): as the sequence (P13726 33-295) above, with S142T, D145Q counted along it
Protocol: as §2, §3, §4

[5] = target: T4, human, rat and chimeric human-rat TF constructs expressed on HEK293 cells (Homo sapiens, UniProt P13726, D212E/E215V/N216S/S220F/V221A); assay: as above; type: cell-based; settings: construct h175-189_r (5), human segment replaced by rat segment
T4 construct: expressed in transfected cells; host or cells: HEK293
T4 sequence (P13726 33-295 D212E/E215V/N216S/S220F/V221A): as the sequence (P13726 33-295) above, with D180E, E183V, N184S, S188F, V189A counted along it
Protocol: as §2, §3, §4

[6] = target: T5, human, rat and chimeric human-rat TF constructs expressed on HEK293 cells (Homo sapiens, UniProt P13726, I184G/K181N/T186I/W190R/Y188T); assay: as above; type: cell-based; settings: construct h146-158_r (5), human segment replaced by rat segment
T5 construct: expressed in transfected cells; host or cells: HEK293
T5 sequence (P13726 33-295 K181N/I184G/T186I/Y188T/W190R): as the sequence (P13726 33-295) above, with K149N, I152G, T154I, Y156T, W158R counted along it
Protocol: as §2, §3, §4

[7] = target: T6, human, rat and chimeric human-rat TF constructs expressed on HEK293 cells (Homo sapiens, UniProt P13726, N203H/T229K); assay: as above; type: cell-based; settings: construct hTF_N171H_T197K
T6 construct: expressed in transfected cells; host or cells: HEK293
T6 sequence (P13726 33-295 N203H/T229K): as the sequence (P13726 33-295) above, with N171H, T197K counted along it
Protocol: as §2, §3, §4

[8] = target: T7, human, rat and chimeric human-rat TF constructs expressed on HEK293 cells (Rattus norvegicus, UniProt P42533, A222V/D193S/E213D/F221S/G171N/G185I/H204N/I187T/K169R/N182K/N201A/Q178D/R191W/R198K/S217N/T175S/T189Y/T196S/T202K/V216E); assay: as above; type: cell-based; settings: construct r141-194_h, rat amino acid segment replaced by human segment (20 amino acid changes)
T7 construct: expressed in transfected cells; host or cells: HEK293
Protocol: as §2, §3, §4

TF-011 [reference compound] was tested, and the “reduction of the peak IIa concentration” value ([1]; 10 min antibody pre-incubation) was 91%, the “reduction of the peak IIa concentration” value ([1]; without antibody pre-incubation) was 91% and the “% 43D7 binding” value [2] was “did not reduce”. For the same substance, the “Antibody binding to TF construct” value [3] was 0 (less than 50%, the antibody was considered a non-binder (0)), the “Antibody binding to TF construct” value [4] was 1 (between 50% and 150%, the antibody was considered a binder (1)) and the “Antibody binding to TF construct” value [5] was 1 (between 50% and 150%, the antibody was considered a binder (1)). For the same substance, the “Antibody binding to TF construct” value [6] was 1 (between 50% and 150%, the antibody was considered a binder (1)), the “Antibody binding to TF construct” value [7] was 1 (between 50% and 150%, the antibody was considered a binder (1)) and the “Antibody binding to TF construct” value [8] was 0 (less than 50%, the antibody was considered a non-binder (0)).
